B1: SG-17: 327 amino acid protein (SEQ ID NO:13) encoded by the genome of Eubacterium eligens (protein, listed as Eubacterium eligens)
chain: CNSKIDVKYDYNVEDYVQLGQYENISVQVDKTSIENELIESKIKQDVEDNTTYTEVDRGAIASDQILVTYTATSSGASLSGLTNTDGKTMILGTDTLGLELDELDQALYGMTPGQTKILIVDIPEDYSSDLYKGTRVVFELTMQTVAQANVPMITNAYVKEAFGYDTVEEYRQSIKESLETDINSKVENKIQEDVLSSLQDTFKISSYPDSLMEETRSRLETSIGFYADFSNLSKDEYCQKQYGLSFDDFVKKSVVQQLIMEAIVKDRNMTMREYDYKGSLDDFAADNGYSNADTFVEKFGKDKIVKAMLVQKAQDYVIEHANISYK
B2: SG-18: 267 amino acid protein (SEQ ID NO:19) encoded by the genome of Clostridium bartlettii sp. nov. (protein, listed as Clostridium bartlettii)
chain: EVDSSKEQATSKDEKQVVVATSVAITEILDRLGVEVSGVPQTSYELPESAKGATEIGSPMNPDMEIIKSLNPTDVICVDTLGSDFEKQFEENNINADFYNLSNVDGLKETIAALGEKFNKQDKANEILDEIKEVENKVNSNKKSDDKILVLFGAPGSVMVATDKSYIGNLVELAGGNNIFSNATSSFTQINLEEIIKLNPDKILVMTHAVPEAAKKSVEEELSKDLWKNVNAVKNNDITYLENGYFGMSANLQIVEAVEKLGDILYE
B3: SG-15: 400 amino acid protein (SEQ ID NO:1) encoded by the genome of Eubacterium eligens (protein, listed as Eubacterium eligens)
chain: EYTEIRTASELVEAAKSASGNYKLMTDIDMTGVEWTPWDFSGTFDGNGHSILNLSVKTVSKKTMKTYDGNRKEYKTYGAGFFGVLTGAKVTGLDIYGARIEITTTEPCFAAPIAGLADDSDISDCIIKDTYVSLTDSAKMWGTGGIAGFGSGNLDNITTDVTLVCVDTDAAVRDEQFMGGAYAAGFLNIRNCSITIDGYDSDHGYVHDGGLVGMYMVYPLELSKTYQGEVLNNKVKGMITFFEDNTDRRAYCQANMGEVMNWTYAYSGFTSDFKRNETYDYSVTLLPEMCSNPSYTDVVTEATASDFGYTTHTCSTCGYTYSDTYTIHEHKVDSYSVVKEAASTDKKDGIEAGTCSLCNQTVYREYAANVVTDDNTQATDNKASGTAVKKGMKESTAVFA
B4: SG-16: 119 amino acid protein (SEQ ID NO:9) encoded by the genome of Eubacterium eligens (protein, listed as Eubacterium eligens)
chain: MTGCSGSKEPDNKTSVDYTVVENADLPEELKKLIESKKDKVMRLTYTTKDYTYVVAGYGTRETSGYSIKVNDVYTGDNALYIDLNLIGPAAGEAVNEVETYPVIVLKMERREESVVFKM

Test system: not listed separately
Experiment: DSS model: body weight
Format: in vivo, C57BL/6 mice
Settings: 50 nmoles/kg i.p. b.i.d.; 2.5% DSS 6 days; percent change from day 0
Experimental: Eight-week old C57BL/6 mice were housed 5 animals were cage and given food and water ad libitum for 7 days. Following the 7-day acclimation period, treatments were initiated concurrently with addition of 2.5% DSS to the drinking water. […] The mice were treated with 2.5% dextran sodium sulfate (DSS) in their drinking water for 6 days. Treatments were continued with SG-15 or […]-GLP2 twice a day (b.i.d.) in the morning and evening (every 8 and 16 hr) with i.p. injections at 50 nmoles/kg. Fresh 2.5% DSS drinking water was prepared every 2 days. Body weight was measured daily from mice included in the DSS model described in Example 1E. Percent change from starting weight on day 0 was determined for each mouse. […] Weight loss in mice treated with SG-15 at day 6 was similar to weight loss observed with […]-GLP2. The graphs in FIG. 6 represent data pooled from the 2 individual experiments (n=20).

Molecule | Body weight compared to vehicle-treated DSS mice
B1 | did not alter body weight
B2 | did not alter body weight
B3 | significantly improved body weight

Test system: HCT8 enterocytes and HT29-MTX goblet cells
Experiment: Epithelial cell wound healing (Oris Cell Migration assay)
Format: cell-based, human
Settings: SG protein 1 μg/ml, EGF 30 ng/ml, staurosporine 100 nM; 48 hours
Source text: HCT8 enterocytes and HT29-MTX goblet cells were used in wound healing studies. The 96 well Oris Cell Migration assay containing plugs preventing cell attachment in the center of each well was used according to the manufacturer's instructions (Platypus Technologies, Madison, WI). The migration assay plates were warmed to room temperature prior to use and plugs were removed from 100% confluence wells prior to cell addition. The HCT8 enterocyte and HT29-MTX goblet cell lines were used at a 9:1 ratio with a total of 5×10^4 total cells added per well (4.5×10^4 HCT8 cells and 0.5×10^4 HT29-MTX cells). […] Plugs were then removed from all control and sample wells. Control wells included cells treated with the diluent vehicle as the blank, 30 ng/ml epidermal growth factor (EGF) as the positive control, and 100 nM staurosporine as the negative control, all diluted in cRPMI. Sample wells contained SG-15 protein at a concentration of 1 μg/ml diluted in cRPMI. 100% and 0% wells were cultured in cRPMI. […] Prior to staining for viable cells, plugs were removed from the 0% wells. Treatment media was removed and cells were washed in PBS containing 0.9 mM CaCl2) and 0.5 mM MgCl2. […] Relative fluorescent values from 100% wells where plugs were removed prior to cell plating were set as the max effect, and 0% wells where plugs remained in place until immediately before staining were used as the baseline. Samples were normalized between 100% and 0% samples and values expressed as a percent growth.

Molecule | Wound healing, percent growth
B1 | significant increase in growth
B2 | slight increase in growth
B3 | significant increase in growth
B4 | significant increase in growth

Test system: IL-10
Experiment: IL-10 production by monocytes in co-culture TEER assay (Luminex)
Format: cell-based, human
Settings: pre-incubated 6 hours prior to HK E. coli; basolateral supernatant
Experimental: (§1) Production of the cytokines TNF-α, IL-23, and IL-10 by monocytes was measured in the tissue culture supernatant from the basolateral chamber of the co-culture TEER assay performed in Example 1B. Following TEER readings, the supernatants were centrifuged at 10,000 g for 5 minutes at 4° C. to remove cell debris. Luminex analysis was performed according to the manufacturer's instructions (Magpix instrument and xPonent software version 4.2; Luminex Corporation (Austin, TX)). Luminex analysis was performed to determine the […] concentration of TNF-α and IL-23 produced by monocytes. Luminex analysis utilizes a bead-based system for quantification of multiple cytokines from a single sample. Like an ELISA, Luminex beads are coated with a capture antibody, and incubation with samples allows the target to bind to the capture antibody. Beads are washed and incubated with a fluorescently labeled detection antibody for quantification of bound target. Cytometric analysis is used to differentiate bead populations, which are loaded with differential fluorescent dyes, and to quantify cytokine levels by measuring detection antibody signal. TNF-α, IL-23, and IL-10 production in untreated cells and cells pre-incubated with SG-15 for 6 hours prior to HK E. coli treatment was normalized to pg/ml concentrations elicited by HK E. coli only, which was set to 1.0. […] The graphs in FIGS. 2A, 2B and 2C each represent data pooled from an individual experiment (n=3).

Molecule | IL-10 production normalized to HK E. coli only (set to 1.0)
B1 | 0.51
B2 | 0.93
B3 | 0.66
B4 | 1.23

Test system: TNF-α
Experiment: TNF-α production by monocytes in co-culture TEER assay (Luminex)
Format: cell-based, human
Settings: pre-incubated 6 hours prior to HK E. coli; basolateral supernatant
Experimental: as §1

Molecule | TNF-α production normalized to HK E. coli only (set to 1.0)
B1 | 0.73
B2 | 1.06
B3 | 0.91
B4 | 1.29

From patent US12168677B2, “Proteins for the treatment of epithelial barrier function disorders” (Genevive, Inc., priority 2017, dated 2024)
